Tests used:
MMP9 = MMP9 (Homo sapiens, UniProt P14780); test: Comparison of binding and inhibitory properties of anti-MMP9 antibodies; conditions: AB0045 compared with AB0041
CD4+ T cell = test: EpiScreen ex vivo human T cell activation assay (immunogenicity); assay type: cell-based
Method: The potential clinical immunogenicity of the chimeric MMP9 antibody AB0041 and the humanized MMP9 antibody AB0045 was assessed. An ex vivo human T cell activation assay, the EpiScreen (Antitope, Ltd., Cambridge, UK) was used. The T cell activation in the EpiScreen assay has been correlated to the antibody/protein therapeutic responses in patients. The response of CD4+ T cell in 20 healthy donors, representing a variety of HLA haplotypes, was examined. […] A positive control of KLH induced a response in 95% of the donors, with a magnitude of 6.34+/−2.77 (mean+/−standard deviation).

[1] = tested on: collagen-induced arthritis; test: Collagen-induced arthritis (CIA) rat model of established disease; assay type: in vivo
Method: This example provides additional characterizations of the animals in example 7 that were treated with either vehicle, AB0041 (in the rat model) or AB0046 (in the mouse model) at 2, 10, or 50 mg/Kg, Enbrel at 10 mg/Kg, or methotrexate (MTX) at 0.5 mg/Kg.
In addition to clinical scoring in Table 6 that was conducted in example 7, paw swelling, ankle diameter and body weights of the treated animals were measured. The measurements were conducted once a week before randomization and three times a week thereafter.
In addition, hind limbs were examined microscopically for soft-tissue changes (edema, tissue/vessel necrosis, inflammatory cell infiltration, and fibroplasias) and cartilage and bone changes (cartilage erosion, bone erosion, periosteal bone formation, synovitis, pannus formation, and joint destruction). […] The severity scores were based on global changes in each limb.
For anti-TNF-alpha scoring, the entire region of the limb anterior to the tarsal-metatarsal joint was scored. Anti-CD68 staining was evaluated using 3-4 images per limb of synovial membranes in the joints formed by the talus bone, with the scores of each membrane averaged and the value assigned as the overall inflammation score. […] Also, MMP9-expressing cells were identified as osteoclasts and cells of the monocyte/macrophage lineage.
Further, serum panel analyses of terminal serum samples were characterized using ELISA. […] AB0046 titers were measured in terminal serum samples.

adjuvant arthritis (AIA) = test: Adjuvant-induced arthritis (AIA) rat model of established disease; conditions: in vivo
Description: The anti-MMP9 antibody, AB0041, was efficacious in treating both inflammation and joint damage in both adjuvant and collagen-induced arthritis (AIA, CIA) rat rheumatoid arthritis models of established disease.

[2] = tested on: lipopolysaccharide (LPS)-induced animal death; test: LPS-induced septicemia model; assay type: in vivo, rat; conditions: after four days
[3] = AB0041 serum levels by indirect binding ELISA in the MSS study; assay type: in vivo, rat; conditions: Day 0 to Day 28; 50 mg/kg IV twice per week
Method: Levels of AB0041 in rat serum were measured by an indirect binding ELISA. ELISA plates were coated with 2 μg/ml of […] in 50 mM sodium borate overnight at 4° C. The plates were blocked with 5% bovine serum albumin (BSA) in phosphate buffered saline, pH 7.4 (PBS) and washed with 0.05% Tween 20 in PBS (PBST). A standard curve was prepared by serially diluting AB0041 in PBST to generate a series ranging from 3,000 ng/ml to 1.5 ng/ml. Serum samples were diluted at least 1:100 in PBST then added to the pre-coated ELISA plate. After one-hour incubation, the plates were washed and polyclonal goat-anti mouse IgG-HRP detection antibody (Thermo Scientific, Fair Lawn, N.J.) was added to the plate at 1:10,000 dilution in 0.5% BSA/PBS. The plates were washed and signal was detected by addition of 3,3′,5,5′-tetramethylbenzidine (TMB) (Sigma Aldrich, St. Louis, Mo.) for 2 minutes. The reaction was stopped by addition of 1M hydrochloric acid (HCl) and absorbance at 450 nm was measured. AB0041 levels in serum were back-calculated using a four-parameter curve fit in the SoftMax software package (Molecular Devices).

Lewis rats = conditions: rat, in vivo
Method: AB0041 was evaluated for safety in Lewis rats in comparison to the pan-MMP inhibitor, Marimastat, in a 28-day study.
Six rats per group were intravenously administered twice per week with either AB0041 at 50 mg/kg or Vehicle-A (10 mM sodium phosphate, pH 6.5, 140 mM sodium chloride, 0.01% Tween20). In addition, six rats per group were treated with Marimastat or Vehicle-M (50% DMSO/50% water) through a surgically implanted subcutaneous Alzet pump (Alzet, Cupertino, Calif.), which delivered at a rate of 2.5 μl/hour for a period of 28 days. The Marimastat release rate was between 6.8 to 5.7 mg/kg/day.
Animals were observed and scored daily for signs of MSS, such as reluctance to move and avoidance of the use of the hind feet. The following system was used to score resting posture, gait and willingness to move: resting posture was scored as 0 (normal), 1 (resting on one foot) or 2 (resting on neither one foot nor two feet). Gait was scored as either 0 (normal), 1 (avoids use of one hind foot) or 2 (avoids use of both hind feet). Willingness-to-move upon stimulation was scored as either 0 (normal movement), 1 (somewhat reluctant to move), 2 (moderately reluctant to move) or 3 (very reluctant to move). In addition, the body weights were recorded twice weekly.
Total scores were calculated as the sum of gait score, resting posture score and willingness-to-move score for each animal. Mean total scores per group were calculated as the average of the total scores from all individual animals per group per day.
Serum was collected from all rats on one day before and days 1, 7, 10, 14, 17, 21, 24, 28 post administration. Serum was centrifuged at 10,000×g for 10 minutes and collected for storage at −20° C. Serum was subject to multianalyte serum protein analysis (RodentMAPv2.0, IDEXX Laboratories).
Tissues and limbs from the rats were harvested and fixed in 10% neutral buffered formalin for histopathologic analysis using hematoxylin and eosin (H&E).

MMP9, sequence (P14780 94-707, species assumed): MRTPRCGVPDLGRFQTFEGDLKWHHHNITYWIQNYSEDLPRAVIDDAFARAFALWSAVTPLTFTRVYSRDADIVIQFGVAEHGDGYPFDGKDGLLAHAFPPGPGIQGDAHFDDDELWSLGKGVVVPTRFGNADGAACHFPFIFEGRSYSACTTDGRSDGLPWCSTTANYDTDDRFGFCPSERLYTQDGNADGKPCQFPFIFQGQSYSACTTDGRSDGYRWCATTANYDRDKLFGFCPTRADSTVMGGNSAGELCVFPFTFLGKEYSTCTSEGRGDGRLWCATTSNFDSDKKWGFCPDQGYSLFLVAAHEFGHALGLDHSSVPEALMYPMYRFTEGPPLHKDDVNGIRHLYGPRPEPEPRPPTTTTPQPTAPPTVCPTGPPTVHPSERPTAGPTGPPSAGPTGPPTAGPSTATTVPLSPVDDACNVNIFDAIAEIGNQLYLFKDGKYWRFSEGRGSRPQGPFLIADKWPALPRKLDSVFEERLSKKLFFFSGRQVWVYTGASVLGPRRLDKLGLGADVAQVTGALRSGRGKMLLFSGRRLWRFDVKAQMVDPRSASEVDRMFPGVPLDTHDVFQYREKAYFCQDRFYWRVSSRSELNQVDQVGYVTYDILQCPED

B1: AB0041: mouse monoclonal antibody to human MMP9, mouse IgG2b heavy chain (SEQ ID NO: 1) and mouse kappa light chain (SEQ ID NO: 2) (antibody, listed as Mus musculus)
heavy: MAVLVLFLCLVAFPSCVLSQVQLKESGPGLVAPSQSLSITCTVSGFSLLSYGVHWVRQPPGKGLEWLGVIWTGGTTNYNSALMSRLSISKDDSKSQVFLKMNSLQTDDTAIYYCARYYYGMDYWGQGTSVTVSSAKTTPPSVYPLAPGCGDTTGSSVTLGCLVKGYFPESVTVTWNSGSLSSSVHTFPALLQSGLYTMSSSVTVPSSTWPSQTVTCSVAHPASSTTVDKKLEPSGPISTINPCPPCKECHKCPAPNLEGGPSVFIFPPNIKDVLMISLTPKVTCVVVDVSEDDPDVRISWFVNNVEVHTAQTQTHREDYNSTIRVVSALPIQHQDWMSGKEFKCKVNNKDLPSPIERTISKIKGLVRAPQVYILPPPAEQLSRKDVSLTCLVVGFNPGDISVEWTSNGHTEENYKDTAPVLDSDGSYFIYSKLDIKTSKWEKTDSFSCNVRHEGLKNYYLKKTISRSPGK
light: MESQIQVFVFVFLWLSGVDGDIVMTQSHKFMSTSVGDRVSITCKASQDVRNTVAWYQQKTGQSPKLLIYSSSYRNTGVPDRFTGSGSGTDFTFTISSVQAEDLAVYFCQQHYITPYTFGGGTKLEIKRADAAPTVSIFPPSSEQLTSGGASVVCFLNNFYPKDINVKWKIDGSERQNGVLNSWTDQDSKDSTYSMSSTLTLTKDEYERHNSYTCEATHKTSTSPIVKSFNRNEC
modifications: CHAIN (1)...(470) AB0041 heavy chain; CHAIN (1)...(234) AB0041 light chain
- binding and inhibitory properties (MMP9): equivalent binding and inhibitory properties
- donors in which a response was induced (CD4+ T cell; CD4+ T cell response, 20 healthy donors of various HLA haplotypes): 20%
- magnitude of response (CD4+ T cell; mean+/−standard deviation): 2.29+/−0.36
- soft tissue disease, joint damage and destruction (histology) ([1]; 50 mg/kg): reduced all measures of soft tissue diseases, joint damage and destruction
- CD68 score by IHC ([1]; 50 mg/kg, compared to vehicle): significant reduction
- TNF-alpha score by IHC ([1]; 50 mg/kg, compared to vehicle): significant reduction
- arthritis clinical scores ([1]; 50, 10 and 2 mg/kg twice per week (4 doses)): reduced arthritis clinical scores
- qualitative and quantitative measurements of clinical disease (paw swelling, ankle diameter, body weight) ([1]; all doses (2, 10, 50 mg/Kg)): significant reversal/mitigation
- serum levels of TNFα, IL-6 and IL-17A ([1]; end of study): efficacious in reducing serum levels
- serum markers (TIMP-1, GM-CSF, MIP-2, MIP-1β, M-CSF-1, OSM, CXCL10, MCP-5, IL-12p70, INF-γ, IL-12, IL-7) ([1]; terminal serum, ELISA): statistically significant reduction
- inflammation and joint damage (adjuvant arthritis (AIA)): efficacious
- animals surviving [2]: 70%
- mean steady-state serum levels [3]: 2 to 4 mg/mL
- H&E staining of hind knee joints (Lewis rats): No synovitis or fibrosis was observed
- average MSS score (Lewis rats): zero
- histopathology of primary organs (H&E) (Lewis rats): No treatment-related abnormalities were observed
- rats with slight limping, avoidance of one hind foot (gait score=1) (Lewis rats): No symptoms were detected
- serum chemistry panel (Lewis rats): within normal ranges
- signs of MSS (Lewis rats; iv, 50 mg/kg): No signs of MSS

From US9732156B2, “Methods of treating rheumatoid arthritis using antibodies to matrix metalloproteinase 9” (Gilead Biologics, Inc., priority 2012, dated 2017)
